Positions count from the first letter of the chain named. Names may count otherwise.
B1: BTN2A1 (271–527) wild type (domain or fragment, human, UniProt Q7KYR7 271-527, looked up)
chain: KLQKEKKILSGEKEFERETREIALKELEKERVQKEEELQVKEKLQEELRWRRTFLHAVDVVLDPDTAHPDLFLSEDRRSVRRCPFRHLGESVPDNPERFDSQPCVLGRESFASGKHYWEVEVENVIEWTVGVCRDSVERKGEVLLIPQNGFWTLEMHKGQYRAVSSPDRILPLKESLCRVGVFLDYEAGDVSFYNMRDRSHIYTCPRSAFSVPVRPFFRLGCEDSPIFICPALTGANGVTVPEEGLTLHRVGTHQSL
B2: BTN2A1 (271–527) L318G (domain or fragment, human, UniProt Q7KYR7 271-527, looked up)
chain: B1 chain with L48G
B3: BTN2A1 (271–527) W320A (domain or fragment, human, UniProt Q7KYR7 271-527, looked up)
chain: B1 chain with W50A
B4: BTN2A1 (271–527) L318GW320A (domain or fragment, human, UniProt Q7KYR7 271-527, looked up)
chain: B1 chain with L48G, W50A
B5: BTN2A1 (309–527) wild type (domain or fragment, human, UniProt Q7KYR7 309-527, looked up)
chain: QVKEKLQEELRWRRTFLHAVDVVLDPDTAHPDLFLSEDRRSVRRCPFRHLGESVPDNPERFDSQPCVLGRESFASGKHYWEVEVENVIEWTVGVCRDSVERKGEVLLIPQNGFWTLEMHKGQYRAVSSPDRILPLKESLCRVGVFLDYEAGDVSFYNMRDRSHIYTCPRSAFSVPVRPFFRLGCEDSPIFICPALTGANGVTVPEEGLTLHRVGTHQSL

Target: the molecule itself
Assay: SEC

| Protein | stoichiometry N |
| --- | --- |
| B1 | 2 |
| B2 | 2 |
| B3 | 2 |
| B4 | 2 |
| B5 | 2 |
